{"source": "paper PMC4485828", "about": "(Oncoimmunology, 2015)", "proteins": {"B1": {"name": "GD2xCD3-HDD bispecific antibody dimer (GD2xCD3 tsc-BsAb with the HNF1α dimerization domain at the C-terminus) (bispecific antibody)", "chain": "QVQLQQSGPELVKPGASVKISCKTSGYKFTEYTMHWVKQSHGKCLEWIGGINPNNGGTNYNQKFKGKATLTVDKSSSTAYMELRSLTSEDSAVYYCARDTTVPYAYWGQGTTVTVSSGGGGSGGGGSGGGGSDIELTQSPAIMSASPGEKVTMTCSASSSISYMHWYQQKPGTSPKRWIYDTSKLASSVPARFSGSGSGTSYSLTISSMEAEDAATYYCHQRSSYPLTFGCGTKLEIKRASTKGPGGGGSGGGGSGGGGSQVQLVQSGGGVVQPGRSLRLSCKASGYTFTRYTMHWVRQAPGKGLEWIGYINPSRGYTNYNQKFKDRFTISRDNSKNTAFLQMDSLRPEDTGVYFCARYYDDHYCLDYWGQGTPVTVSSGGGGSGGGGSGGGGSDIQMTQSPSSLSASVGDRVTITCSASSSVSYMNWYQQTPGKAPKRWIYDTSKLASGVPSRFSGSGSGTDYTFTISSLQPEDIATYYCQQWSSNPFTFGQGTKLQITRTPLGDTTHTSGMVSKLSQLQTELLAALLESGLSKEALIQALGEGSGGAP"}}, "key": {"[1]": {"assay": "SEC"}, "[2]": {"target": "the molecule itself", "assay": "SEC"}}}
{"protein": "B1", "values": [{"measurement": "percent dimeric (purity by HPLC-SEC)", "setting": "[1]", "value": 97, "unit": "%"}, {"measurement": "stoichiometry N", "setting": "[2]", "value": 2}]}
